Target: T1, mouse FAP (moFAP) expressed on 293FF cells (mouse, UniProt P97321 1-761)
T1 sequence: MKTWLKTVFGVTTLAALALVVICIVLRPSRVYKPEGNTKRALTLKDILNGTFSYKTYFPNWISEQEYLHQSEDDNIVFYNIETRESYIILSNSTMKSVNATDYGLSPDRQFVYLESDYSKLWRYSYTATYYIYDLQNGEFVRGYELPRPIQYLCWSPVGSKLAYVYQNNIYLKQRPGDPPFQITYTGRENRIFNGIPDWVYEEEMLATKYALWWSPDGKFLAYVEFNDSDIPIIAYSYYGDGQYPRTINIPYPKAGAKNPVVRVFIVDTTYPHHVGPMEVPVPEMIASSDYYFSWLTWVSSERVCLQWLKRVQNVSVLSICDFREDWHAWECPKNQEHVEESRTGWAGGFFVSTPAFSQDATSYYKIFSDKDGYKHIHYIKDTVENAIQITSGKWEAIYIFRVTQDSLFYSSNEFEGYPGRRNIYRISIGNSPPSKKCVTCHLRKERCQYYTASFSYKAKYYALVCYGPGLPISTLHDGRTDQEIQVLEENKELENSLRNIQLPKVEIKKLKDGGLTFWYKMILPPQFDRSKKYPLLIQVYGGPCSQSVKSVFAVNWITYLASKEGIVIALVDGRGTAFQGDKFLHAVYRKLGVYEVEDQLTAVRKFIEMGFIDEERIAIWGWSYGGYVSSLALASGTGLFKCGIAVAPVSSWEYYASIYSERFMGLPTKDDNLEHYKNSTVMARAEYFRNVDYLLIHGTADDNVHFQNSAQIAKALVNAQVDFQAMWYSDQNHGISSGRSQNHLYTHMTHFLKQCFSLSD
Assay: FACS, 293FF cells transfected with moFAP, IgG at 2.5 ug/ml
Protocol: The binding of all test and control antibodies to the cells was tested at a single concentration of 2.5 ug/ml. Goat-anti-human IgG F(ab)2-PE (Invitrogen, H10104) was used as secondary antibody (1:100 in FACS buffer). Ab0625 was used at 10 ug/ml and its binding was detected using Ab0250 (Becton Dickinson, 550767) (1:100 in FACS buffer). The FACS buffer containing PBS (Gibco, cat. #10010-015), 0.5% BSA (Thermo Scientific, cat. #37525), and 2 mM EDTA (Invitrogen, cat. #15575-020) was kept ice cold throughout the assay.
The target cells were harvested, counted, and centrifuged for 5 min at 300 g at 4 °C. Cells were then resuspended in FACS buffer at a concentration of 1×10⁶ cells/ml and transferred (200,000 cells/well) to a U-bottom 96-well FACS plate (BD, cat. #353910). Cells were then centrifuged for 3 min at 300 g at 4° C. and supernatant was discarded. 50 μl of primary antibody solutions were added to the cells, mixed, and incubated for 30 min at 2-8° C. in the dark. Cells were washed by adding 150 μl FACS buffer and centrifuged for 3 min at 300 g at 4° C. Supernatant was discarded, and cells were washed again by adding 200 μl FACS buffer to the plate. Cells were then centrifuged for 3 min at 300 g at 4° C. and afterwards the supernatant was discarded. 50 μl of secondary antibody solutions were added to the cells, mixed, and incubated for 30 min at 2-8° C. in the dark. […]

B1: anti-human FAP bivalent monospecific IgG comprising heavy chain variable region SEQ ID NO: 69 (antibody, V domains shown)
VH: EVQLVETGGGLIQPGGSLRLSCAASGFTVSSNYMSWVRQAPGKGLEWVSVIYSGGSTYYADSVKGRFTISRDNSKNTLYLQMNSLRAEDTAVYYCARGPTDAYPYLDYLWGQGTLVTVSS
VL: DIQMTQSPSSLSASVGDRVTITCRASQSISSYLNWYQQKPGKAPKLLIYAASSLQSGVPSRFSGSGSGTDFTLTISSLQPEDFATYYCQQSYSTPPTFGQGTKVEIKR
notes: IgG1 format, common light chain VK1-39/JK1; also called human/mouse cross-reactive FAP IgG
binding result: binds
